The target in the assay is recombinant myostatin. Kind of assay: cell-based or functional assay.

The values that follow come from patent publication US20070190056A1.

As for “myostatin antagonist 350 (amino acids 267-350 of bovine myostatin) (from UniProt O18836 267-350) (peptide)”, the macrophage migration towards ZAMS medium (chemotaxis assay, FIG. 9) is 20 fold.
